Earlier results in patent US20010028895A1, “Methods of treating alzheimer's disease” (priority 2000, published 2001).

Experiments:
[1] = among the eight 22-mer domains of apo A-I
[2] = among the eight 22-mer domains of apo A-I; remark: listed apart in the source
[3] = among the eight 22-mer domains of apo A-I; remark: listed apart in the source
[4] = among the eight 22-mer domains of apo A-I; remark: listed apart in the source

## 220-241: synthesized C-terminal 22-mer amphipathic domain of human apo A-I, residues 220-241 (PVLESFKVSFLSALEEYTKKLN; UniProt P02647 244-265, looked up, fragment)
[1]
  partition coefficient into POPC liposomes: highest partition coefficient
[2]
  exclusion pressure for penetration into egg yolk phosphatidylcholine monolayer: highest exclusion pressure
[3]
  reduction in the enthalpy of the gel-to-liquid crystalline phase transition of DMPC MLVs: greatest reduction
[4]
  clarifying multilamellar vesicles of DMPC: effective

## 44-65: synthesized N-terminal 22-mer amphipathic domain of human apo A-I, residues 44-65 (LKLLDNWDSVTSTFSKLREQLG; UniProt P02647 68-89, looked up, fragment)
[1]
  partition coefficient into POPC liposomes: highest partition coefficient
[2]
  exclusion pressure for penetration into egg yolk phosphatidylcholine monolayer: highest exclusion pressure
[3]
  reduction in the enthalpy of the gel-to-liquid crystalline phase transition of DMPC MLVs: greatest reduction
[4]
  clarifying multilamellar vesicles of DMPC: effective
